From patent US20210355221A1, “Targeting the Non-Canonical NFkB Pathway in Cancer Immunotherapy” (The General Hospital Corporation, priority 2018, published 2021)

B1: IL-12: recombinant IL-12 in mouse studies; recombinant human IL-12p70 (PeproTech) in the human ex vivo studies (protein, UniProt P29459 23-219; P29460 23-328, looked up)
Interleukin-12 subunit alpha: RNLPVATPDPGMFPCLHHSQNLLRAVSNMLQKARQTLEFYPCTSEEIDHEDITKDKTSTVEACLPLELTKNESCLNSRETSFITNGSCLASRKTSFMMALCLSSIYEDLKMYQVEFKTMNAKLLMDPKRQIFLDQNMLAVIDELMQALNFNSETVPQKSSLEEPDFYKTKIKLCILLHAFRIRAVTIDRVMSYLNAS
Interleukin-12 subunit beta: IWELKKDVYVVELDWYPDAPGEMVVLTCDTPEEDGITWTLDQSSEVLGSGKTLTIQVKEFGDAGQYTCHKGGEVLSHSLLLLHKKEDGIWSTDILKDQKEPKNKTFLRCEAKNYSGRFTCWWLTTISTDLTFSVKSSRGSSDPQGVTCGAATLSAERVRGDNKEYEYSVECQEDSACPAAEESLPIEVMVDAVHKLKYENYTSSFFIRDIIKPDPPKNLQLKPLKNSRQVEVSWEYPDTWSTPHSYFSLTFCVQVQGKSKREKKDRVFTDKTSATVICRKNASISVRAQDRYYSSSWSEWASVPCS

Tests used:
[1] = system: MC38 tumors; experiment: MC38 tumor model: tumor growth, survival, re-challenge; assay type: in vivo, mice; settings: for antitumor response, MC38 tumors: MC38 tumor-bearing mice, treatment as labelled
Protocol: MC38 tumor cell lines were obtained from Dr. Mark Smyth (QIMR Berghofer). MC38 cells were implanted at 2×10^6 cells in the flank. B16F10 cell lines were obtained from ATCC. B16F10 cells were implanted intradermally at 0.5×10^6 cells in the flank. All tumor models were allowed to grow for one week prior to therapy. Tumor sizes were approximately 75 mm^3 before treatment initiation, and starting tumor volumes were normalized between treatment groups. Percent tumor changes were calculated as percent difference of mouse tumor volume from pre-treatment baseline, measured using digital caliper. Lung seeding B16F10 models received 0.5×10^6 cells intravenously and were allowed to grow for 10 days from the point of implantation. Mouse tumors were allowed to grow to a maximum of 2 cm in diameter, or until tumor ulceration occurred. These were considered as endpoints for survival experiments in accordance with MGH IACUC regulations.
(§1) Tumor bearing mice, with a tumor size of approximately 75 mm^3, were treated with 200 μg of aPD-1 and/or 100 μg of aCD40 intraperitoneally for immunotherapy studies. For combination treatment studies, both aPD-1 and aCD40 were administered at the same time. For IL-12 neutralization studies, mice were dosed with 500 μg of anti-IL-12p40 Clone 17.8 daily for 5-7 days following aPD-1 therapy. Neutralization of IFN-γ in vivo was performed by administering 1 mg of anti-IFN-γ Clone XMG1.2 initially with 500 μg of anti-IFN-γ dosed daily intraperitoneally for days 1-3. The cIAP1/2 inhibitor AZD5582 (Hennessy et al., 2013) was purchased from Selleck Chem and was resuspended in sterile saline. Mice received a single dose of AZD5582 at 10 mg/kg, intraperitoneally. […]
Long-term surviving mice from aPD-1 and aCD40 combination therapy were re-challenged with either MC38 or B16F10 tumors at 50 days following primary tumor rejection. […] Naive C57BL/6J mice were implanted alongside re-challenge mice, and these mice were monitored for tumor growth for 2 weeks following implantation. […]

[2] = system: IL-12p40-eYFP^+ cells; experiment: Intravital imaging of MC38 tumors in IL-12p40-eYFP reporter mice; assay type: in vivo; settings: after 48 hours compared to baseline
Protocol: as §1, with “saline.” for “saline. Mice received a single dose of AZD5582 at 10 mg/kg, intraperitoneally.”
(§2) Interferon gamma reporter (IFN-γ-eYFP) or IL-12p40 reporter (IL12p40-eYFP) mice were anesthetized and dorsal skin-fold window chambers were installed as previously described (Thurber et al., 2013) and mice were treated with analgesic (Buprenorphine 0.1 mg/kg/day) for 3 days following chamber implantation. […] Anesthetized mice were kept on a heating pad kept at 37° C., vital signs monitored and mice were imaged using an Olympus FluoView FV1000MPE confocal imaging system (Olympus America). […] Sequential scanning (5 μm slices) with 405, 473, 559, and 635 nm lasers was performed using voltage and power settings that were optimized using fluorescence minus-one control mice prior to time lapse acquisition. […]

[3] = system: Flt3L-derived bone marrow DCs; experiment: Flt3L-derived bone marrow DCs cultured in vitro with AZD5582, IL-12p40 transcripts; assay type: cell-based; settings: 24 hours, various concentrations of AZD5582
Protocol: FIGS. 13A-C. IL-12 Expressing Cells Express More CD40 and […] can Induce IL-12 Production In vitro. (A) Flow cytometry of MC38 tumors from IL-12p40-eYFP reporter mice, stained for CD40 expression; n=7 per group. (B) Flow cytometry of CD40 expression from the following tumor immune cell populations: Non-Antigen Presenting Cells (non-APCs, defined as F4/80−CD11c−MHCII−), macrophages (F4/80+) and IL-12+ DCs (CD11chi MHCIIhi IL-12+); n=4 per group. (C) Flt3L-derived bone marrow DCs were cultured in vitro with various concentrations of AZD5582 for 24 hours, and were harvested for RNA. Shown is fold change expression of IL-12p40 transcripts compared to untreated conditions (n=3 per condition). Results are representative of at least 2 independent experiments. ****p<0.0001; Student's two tailed t-test.

[4] = system: IFN-γ-eYFP^+ cells; experiment: Intravital imaging of MC38 tumors in IFN-γ-eYFP reporter mice; assay type: in vivo; settings: recombinant IL-12, by day four, in the absence of aPD-1
Protocol: as §1, with “saline.” for “saline. Mice received a single dose of AZD5582 at 10 mg/kg, intraperitoneally.”
as §2

[5] = system: B16F10 melanoma; experiment: B16F10 melanoma tumor model: tumor growth, survival, re-challenge; assay type: in vivo; settings: B16F10 melanoma-bearing mice, treatment as labelled
Protocol: Tumor bearing mice, with a tumor size of approximately 75 mm^3, were treated with 200 μg of aPD-1 and/or 100 μg of aCD40 intraperitoneally for immunotherapy studies. For combination treatment studies, both aPD-1 and aCD40 were administered at the same time. […] Mice received a single dose of AZD5582 at 10 mg/kg, intraperitoneally. […]

[6] = system: human tumor-infiltrating CD8^+ T cells; experiment: IL-12 ex vivo studies: IFN-γ ELISA of stimulated patient tumor-infiltrating CD8+ T cells; assay type: cell-based; settings: aCD3 stimulation with IL-12, six cancer patients, 3 days
From the text: IL-12 ex vivo studies: Fresh tumor resections from six cancer patients undergoing surgical treatment at University Hospital Basel, Switzerland were used to assess whether IL-12 can directly activate human tumor-infiltrating CD8^+ T cells upon isolation of these cells ex vivo. Tumor tissue (two lung adenocarcinomas, three squamous cell carcinomas and one synovial sarcoma) was collected from six different patients undergoing primary surgical treatment between November 2015 and November 2017. The study was approved by the local Ethical Review Board (Ethikkommission Nordwestschweiz) and all patients consented in writing to the analysis of their tumor samples. The solid tumor lesions were mechanically dissociated and enzymatically digested using accutase (PAA), collagenase IV (Worthington), hyaluronidase (Sigma) and DNAse type IV (Sigma), directly after excision. Single cell suspensions were prepared and cryopreserved in liquid nitrogen in 90% fetal calf serum (FCS, Brunschwig Pan Biotech) and 10% dimethylsulfoxide (DMSO, Sigma) until further usage. […] Sorting purity was measured by reanalyzing the sorted cells and always reached >95% purity. […] IFN-γ secreted by these cultures was then measured by enzyme-linked immunosorbent assay according to the instructions by the manufacturer (BD, OptEIA human IFN-γ ELISA set). […]

[7] = system: Tumor-infiltrating CD8^+ T cells isolated from MC38 tumors; experiment: In vitro restimulation of tumor-infiltrating CD8+ T cells isolated from MC38 tumors (intracellular IFN-γ, flow cytometry); assay type: cell-based, mice; settings: aCD3/CD28 stimulation with IL-12 (20 ng/ml), 72 hours
Protocol: Tumor tissue or tumor draining lymph nodes were isolated from mice and minced using surgical scissors. Tissues were then digested using 0.2 mg/ml Collagenase II (Worthington) in RPMI 1640 media (CellGro) at 37° C. for 30 minutes and then strained through a 40 μm filter (BD Falcon). Cell suspensions were incubated with Fc Block TruStain FcX Clone 93 (Biolegend) in PBS containing 0.5% BSA and 2 mM EDTA before staining with fluorochrome labeled antibodies. Antibodies against CD11b (M1/70, Biolegend), CD8a (53-6.7, Biolegend), CD45 (30-F11, BD), F4/80 (BM8, Biolegend), CD11c (N418, Biolegend), MHC II I-A/I-E (M5/114.15.2, Biolegend), CD103 (2E7, Biolegend), IFN-γ (XMG1.2, Biolegend) were used for marker staining. 7AAD viability staining was used to exclude dead cells from analysis. Samples were run on a LSR II flow cytometer and analyzed using FlowJo software (Treestar). For intracellular cytokine staining, samples were incubated for 5 hours with GolgiPlug (BD) at 1 μl per ml of culture media. Cells were then surface stained and then fixed and permeabilized using the BD Cytofix/Cytoperm kit (BD) according to manufacturer's protocol and stained for intracellular cytokines.
MC38 tumors were digested into single cell suspensions similar to tissue processing for flow cytometry analysis and were passed through a 40 μm filter. […]

Molecule	effect of FTY720 on the antitumor response to aPD-1 ([1]; MC38, FTY720 1.25 mg/kg i.p. daily with aPD-1)	fold increase of tumor-infiltrating IL-12^+ cells [2] [fold]	antitumor response, MC38 tumors [1]	IL-12 production in vitro [3]	fold increase of IFN-γ-eYFP^+ cells [4] [fold]	antitumor response, B16F10 tumors [5]	IFN-γ production by CD8^+ T cells [6]	IFN-γ production by stimulated CD8^+ T cells [7]
CCCCCCCCc1ccc(CCC(N)(CO)CO)cc1 [FTY720]	did not affect the antitumor response to aPD-1 treatment	–	–	–	–	–	–	–
CN[C@@H](C)C(=O)N[C@H](C(=O)N1CCC[C@H]1C(=O)N[C@H]1c2ccccc2C[C@H]1OCC#CC#CCO[C@@H]1Cc2ccccc2[C@@H]1NC(=O)[C@@H]1CCCN1C(=O)[C@@H](NC(=O)[C@H](C)NC)C1CCCCC1)C1CCCCC1 [AZD5582]	–	4.0±1.3	provided antitumor effects in vivo	potently enhanced IL-12 production in vitro	–	–	–	–
B1	–	–	robust antitumor responses	–	5.9±0.7	substantial antitumor effect	increased IFN-γ production by CD8^+ T cells in five out of six patients	substantially increased IFN-γ production
